This is an account of results in patent US20240270865A1 (INNATE PHARMA, published 2024).

The experiment has as its target T1, recombinant human soluble CD73 protein (cloned huCD73 with C-terminal 6xHis tag) (human, UniProt P21589 27-547).
T1 construct: also called recombinant CD73 protein; CD73 recombinant protein
T1 sequence: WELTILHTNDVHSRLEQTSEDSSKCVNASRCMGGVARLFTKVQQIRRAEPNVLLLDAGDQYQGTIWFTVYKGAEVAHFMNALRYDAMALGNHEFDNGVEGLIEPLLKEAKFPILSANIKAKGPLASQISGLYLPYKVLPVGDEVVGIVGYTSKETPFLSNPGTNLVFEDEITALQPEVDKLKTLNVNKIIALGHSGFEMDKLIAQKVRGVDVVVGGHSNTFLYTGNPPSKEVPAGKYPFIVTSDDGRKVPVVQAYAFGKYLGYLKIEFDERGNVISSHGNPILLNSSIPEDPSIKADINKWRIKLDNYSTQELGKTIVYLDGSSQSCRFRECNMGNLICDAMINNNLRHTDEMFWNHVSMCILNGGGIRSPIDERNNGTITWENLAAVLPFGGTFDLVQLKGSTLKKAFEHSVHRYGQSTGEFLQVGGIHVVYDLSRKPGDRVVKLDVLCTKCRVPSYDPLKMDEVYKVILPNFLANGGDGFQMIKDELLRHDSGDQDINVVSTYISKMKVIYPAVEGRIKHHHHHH
The experiment is described as follows: SPR, recombinant CD73 protein. How it is done: SPR measurements were performed on a Biacore™ T200 apparatus at 25° C. Protein-A (GE Healthcare) was immobilized on a Sensor Chip CM5 (GE Healthcare). […] The entire sensorgram sets were fitted using the 1:1 kinetic binding model. Bivalent affinities and kinetic association and dissociation rate constants are calculated.
(In SPR one partner is held on a chip, and binding of the other changes the refractive index at the surface.)

B1: H2L2 (antibody, human IgG1, V domains shown)
VH: QIQLVQSGAEVKKPGASVKVSCKASGYAFTSYNMYWVRQAPGQSLEWMGYIDPYNGGSSYNLTFKGRVTITVDKSASTAYMELSSLRSEDTAVYYCARGYGNYKAWFAYWGQGTLVTVSS
VL: DIQMTQSPSSLSASVGDRVTITCKASQSVSNDVAWYQQKPGKAPKLLIYYASTRYTGVPDRFSGSGYGTDFTFTISSLQPEDIATYYCQQDYSSLTFGQGTKLEIK
notes: also called H2 variant
In the case of B1, the binding result is reported as “binds”.

B2: H4L2 (antibody, human IgG1, V domains shown)
VH: QIQLVQSGAEVKKPGASVKVSCKASGYAFASYNMYWVRQAPGQSLEWIGYIDPYNGGSSYNLTFKGKATLTVDKSASTAYMELSSLRSEDTAVYYCARGYGNYKAWFAYWGQGTLVTVSS
VL: DIQMTQSPSSLSASVGDRVTITCKASQSVSNDVAWYQQKPGKAPKLLIYYASTRYTGVPDRFSGSGYGTDFTFTISSLQPEDIATYYCQQDYSSLTFGQGTKLEIK
notes: also called H4 variant
Turning to B2, the binding result is recorded as “binds”.

B3: H1L3 (antibody, human IgG1, V domains shown)
VH: QIQLVQSGAEVKKPGASVKVSCKASGYTFTSYNMYWVRQAPGQRLEWMGYIDPYNGGSSYNLTFKGRVTITRDKSASTAYMELSSLRSEDTAVYYCARGYGNYKAWFAYWGQGTLVTVSS
VL: DVQMTQSPSSLSASVGDRVTITCKASQSVSNDVAWYQQKPGKAPKLLIYYASTRYTGVPDRFSGSGYGTDFTFTISSLQPEDIATYYCQQDYSSLTFGQGTKLEIK
notes: also called H1 variant
Take B3: the binding result is “binds”.

B4: H4L4 (antibody, human IgG1, V domains shown)
VH: QIQLVQSGAEVKKPGASVKVSCKASGYAFASYNMYWVRQAPGQSLEWIGYIDPYNGGSSYNLTFKGKATLTVDKSASTAYMELSSLRSEDTAVYYCARGYGNYKAWFAYWGQGTLVTVSS
VL: DVQMTQSPSSLSASVGDRVTITCKASQSVSNDVAWYQQKPGKAPKLLIYYASTRYTGVPDRFSGSGYGTDFTFTISSLQPEDIATYFCQQDYSSLTFGQGTKLEIK
notes: also called H4 variant
For B4, the binding result is “binds”.

B5: H3L1 (antibody, human IgG1, V domains shown)
VH: QIQLVQSGAEVKKPGASVKVSCKASGYAFTSYNMYWVRQAPGQSLEWIGYIDPYNGGSSYNLTFKGKATITVDKSASTAYMELSSLRSEDTAVYYCARGYGNYKAWFAYWGQGTLVTVSS
VL: DIQMTQSPSSLSASVGDRVTITCKASQSVSNDVAWYQQKPGKAPKLLIYYASTRYTGVPSRFSGSGYGTDFTFTISSLQPEDIATYYCQQDYSSLTFGQGTKLEIK
notes: also called H3 variant
With B5, the binding result is on record as “binds”.

B6: H3L2 (antibody, human IgG1, V domains shown)
VH: QIQLVQSGAEVKKPGASVKVSCKASGYAFTSYNMYWVRQAPGQSLEWIGYIDPYNGGSSYNLTFKGKATITVDKSASTAYMELSSLRSEDTAVYYCARGYGNYKAWFAYWGQGTLVTVSS
VL: DIQMTQSPSSLSASVGDRVTITCKASQSVSNDVAWYQQKPGKAPKLLIYYASTRYTGVPDRFSGSGYGTDFTFTISSLQPEDIATYYCQQDYSSLTFGQGTKLEIK
notes: also called H3 variant
Consider B6, for which the binding result is reported as “binds”.

B7: H1L1 (antibody, human IgG1, V domains shown)
VH: QIQLVQSGAEVKKPGASVKVSCKASGYTFTSYNMYWVRQAPGQRLEWMGYIDPYNGGSSYNLTFKGRVTITRDKSASTAYMELSSLRSEDTAVYYCARGYGNYKAWFAYWGQGTLVTVSS
VL: DIQMTQSPSSLSASVGDRVTITCKASQSVSNDVAWYQQKPGKAPKLLIYYASTRYTGVPSRFSGSGYGTDFTFTISSLQPEDIATYYCQQDYSSLTFGQGTKLEIK
notes: also called H1 variant
Take B7: the binding result is “binds”.

B8: H1L4 (antibody, human IgG1, V domains shown)
VH: QIQLVQSGAEVKKPGASVKVSCKASGYTFTSYNMYWVRQAPGQRLEWMGYIDPYNGGSSYNLTFKGRVTITRDKSASTAYMELSSLRSEDTAVYYCARGYGNYKAWFAYWGQGTLVTVSS
VL: DVQMTQSPSSLSASVGDRVTITCKASQSVSNDVAWYQQKPGKAPKLLIYYASTRYTGVPDRFSGSGYGTDFTFTISSLQPEDIATYFCQQDYSSLTFGQGTKLEIK
notes: also called H1 variant
B8: the binding result is “binds”.

B9: H2L4 (antibody, human IgG1, V domains shown)
VH: QIQLVQSGAEVKKPGASVKVSCKASGYAFTSYNMYWVRQAPGQSLEWMGYIDPYNGGSSYNLTFKGRVTITVDKSASTAYMELSSLRSEDTAVYYCARGYGNYKAWFAYWGQGTLVTVSS
VL: DVQMTQSPSSLSASVGDRVTITCKASQSVSNDVAWYQQKPGKAPKLLIYYASTRYTGVPDRFSGSGYGTDFTFTISSLQPEDIATYFCQQDYSSLTFGQGTKLEIK
notes: also called H2 variant
As to B9, the binding result is “binds”.

B10: H2L1 (antibody, human IgG1, V domains shown)
VH: QIQLVQSGAEVKKPGASVKVSCKASGYAFTSYNMYWVRQAPGQSLEWMGYIDPYNGGSSYNLTFKGRVTITVDKSASTAYMELSSLRSEDTAVYYCARGYGNYKAWFAYWGQGTLVTVSS
VL: DIQMTQSPSSLSASVGDRVTITCKASQSVSNDVAWYQQKPGKAPKLLIYYASTRYTGVPSRFSGSGYGTDFTFTISSLQPEDIATYYCQQDYSSLTFGQGTKLEIK
notes: also called H2 variant
As for B10, the binding result is “binds”.

B11: H4L3 (antibody, human IgG1, V domains shown)
VH: QIQLVQSGAEVKKPGASVKVSCKASGYAFASYNMYWVRQAPGQSLEWIGYIDPYNGGSSYNLTFKGKATLTVDKSASTAYMELSSLRSEDTAVYYCARGYGNYKAWFAYWGQGTLVTVSS
VL: DVQMTQSPSSLSASVGDRVTITCKASQSVSNDVAWYQQKPGKAPKLLIYYASTRYTGVPDRFSGSGYGTDFTFTISSLQPEDIATYYCQQDYSSLTFGQGTKLEIK
notes: also called H4 variant
With B11, the binding result is “binds”.

B12: H1L2 (antibody, human IgG1, V domains shown)
VH: QIQLVQSGAEVKKPGASVKVSCKASGYTFTSYNMYWVRQAPGQRLEWMGYIDPYNGGSSYNLTFKGRVTITRDKSASTAYMELSSLRSEDTAVYYCARGYGNYKAWFAYWGQGTLVTVSS
VL: DIQMTQSPSSLSASVGDRVTITCKASQSVSNDVAWYQQKPGKAPKLLIYYASTRYTGVPDRFSGSGYGTDFTFTISSLQPEDIATYYCQQDYSSLTFGQGTKLEIK
notes: also called H1 variant
For the molecule B12, the binding result is recorded as “binds”.

B13: H2L3 (antibody, human IgG1, V domains shown)
VH: QIQLVQSGAEVKKPGASVKVSCKASGYAFTSYNMYWVRQAPGQSLEWMGYIDPYNGGSSYNLTFKGRVTITVDKSASTAYMELSSLRSEDTAVYYCARGYGNYKAWFAYWGQGTLVTVSS
VL: DVQMTQSPSSLSASVGDRVTITCKASQSVSNDVAWYQQKPGKAPKLLIYYASTRYTGVPDRFSGSGYGTDFTFTISSLQPEDIATYYCQQDYSSLTFGQGTKLEIK
notes: also called H2 variant
Consider B13, for which the binding result is “binds”.

B14: H3L4 (antibody, human IgG1, V domains shown)
VH: QIQLVQSGAEVKKPGASVKVSCKASGYAFTSYNMYWVRQAPGQSLEWIGYIDPYNGGSSYNLTFKGKATITVDKSASTAYMELSSLRSEDTAVYYCARGYGNYKAWFAYWGQGTLVTVSS
VL: DVQMTQSPSSLSASVGDRVTITCKASQSVSNDVAWYQQKPGKAPKLLIYYASTRYTGVPDRFSGSGYGTDFTFTISSLQPEDIATYFCQQDYSSLTFGQGTKLEIK
notes: also called H3 variant
For B14, the binding result is on record as “binds”.

B15: H3L3 (antibody, human IgG1, V domains shown)
VH: QIQLVQSGAEVKKPGASVKVSCKASGYAFTSYNMYWVRQAPGQSLEWIGYIDPYNGGSSYNLTFKGKATITVDKSASTAYMELSSLRSEDTAVYYCARGYGNYKAWFAYWGQGTLVTVSS
VL: DVQMTQSPSSLSASVGDRVTITCKASQSVSNDVAWYQQKPGKAPKLLIYYASTRYTGVPDRFSGSGYGTDFTFTISSLQPEDIATYYCQQDYSSLTFGQGTKLEIK
notes: also called H3 variant
With B15, the binding result was “binds”.

B16: H4L1 (antibody, human IgG1, V domains shown)
VH: QIQLVQSGAEVKKPGASVKVSCKASGYAFASYNMYWVRQAPGQSLEWIGYIDPYNGGSSYNLTFKGKATLTVDKSASTAYMELSSLRSEDTAVYYCARGYGNYKAWFAYWGQGTLVTVSS
VL: DIQMTQSPSSLSASVGDRVTITCKASQSVSNDVAWYQQKPGKAPKLLIYYASTRYTGVPSRFSGSGYGTDFTFTISSLQPEDIATYYCQQDYSSLTFGQGTKLEIK
notes: also called H4 variant
For B16, the binding result is “binds”.
